Patent CN108285485A (WULUMUQI HENGKANG ZHIYUAN BIOTECHNOLOGY CO LTD, dated 2018)

Target: PD-1蛋白 (程序性死亡受体-1)
Assay: non-competitive ELISA, PD-1 coated at 2, 1, 0.5 and 0.25 μg/ml, KA=(n-1)/(nAb'-Ab)

PD-1蛋白 (程序性死亡受体-1), sequence (chain, as listed by the source): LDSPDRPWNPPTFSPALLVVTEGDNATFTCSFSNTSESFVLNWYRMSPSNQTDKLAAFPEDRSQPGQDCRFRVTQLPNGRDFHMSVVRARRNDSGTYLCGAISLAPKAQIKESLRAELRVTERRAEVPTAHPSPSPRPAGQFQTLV

| Ka [M⁻¹] | Binder |
| --- | --- |
| 2.31e+11 | His-VHH-B7-c-Myc (VHH, Bactrian camel VHH expressed from pET22b in BL21(DE3); not shown: His tag, named only in the construct name; c-Myc tag, named only in the construct name) VHH: QVQLQESGGGSVQAGGSLRLSCVASQYTYNTVGWFRQAPGKEREGVAGIYNGGDQTYYSESAKGRFTISQDNAKRTVYLQMNSLKPEDTAMYYCAAGRLIVSGRWSMTKEEYQYWGQGTQVTVSS |
| 4.79e+11 | His-VHH-H12-c-Myc (VHH, Bactrian camel VHH expressed from pET22b in BL21(DE3); not shown: His tag, named only in the construct name; c-Myc tag, named only in the construct name) VHH: QVQLQESGGGSVQAGGSLRLSCAVSGGTTRRRCMGWFRQAPGKEREEVASYDNQGIIKYADFVKGRFTISRDNAKNTLYLQMNTLKPEDTAMYYCAMAPGYDNRGCLVYNTWGQGTQVTVSS |
| 2.62e+11 | His-VHH-H5-c-Myc (VHH, Bactrian camel VHH expressed from pET22b in BL21(DE3); not shown: His tag, named only in the construct name; c-Myc tag, named only in the construct name) VHH: QVQLQESGGGSVQAGGSLRLSCAASGSTVRRRCMGWFRQAPGKEREEVAIVDNEGIEQYADFVKGRFTISRDNAKNTLYLQMNSLKPEDTAMYYCAMAPGYTPTGCLVYNTWGQGTQVTVSS |
